# Test results from the nanobody polyreactivity screen of Harvey et al. (2022).
# Test: yeast display, Sf9 membrane polyspecificity reagent, FACS + sequencing; frameworks hold sequencing errors
# Outline: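 Nanobodies came from a synthetic yeast display library in Saccharomyces cerevisiae BJ5465, induced with galactose for 36–48 hours and stained for 1 hour at 4 °C with 10% biotinylated, detergent-solubilized Sf9 membrane reagent. Cells were enriched on streptavidin microbeads and then FACS-sorted, with low and high (top ~1%) gates set on anti-HA fluorescence for expression and streptavidin fluorescence for reagent binding. Each polyreactivity label reflects the gate a clone came from. Genes were amplified by colony PCR, sequenced by MiSeq 2 × 250 and filtered by CDR length.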
row,Sequence,polyreactivity (PSR sort gate)
1,QVQLVESGGGLVQAGGSLRLSCAASGITFDYYSMGWYRQAPGTERELVAAISWGGGSTYYADSVKGRFTISRDNAKNTVYLQMNSLKPEDTAVYYCAADIVSSPSSYVPPGDYWGQGTQVTVSS,low polyreactivity
2,QVQLVESGGGLVQAGGSLRLSCAASGITFDYYVMGWYRQAPGKERELVAAISWSGGTTYYADSVKGRFTISRDYAKNTVYLQMNSLKPEDTAVYYCNAEHTGSFYGGYPWEMEYWGQGTQVTVSS,low polyreactivity
3,QVQLVESGGGLVQAGGSLRLSCAASGITFEANTMGWYRQAPAKERELVAVITDTGSTNYADSVKGRFTISRDNAKNTVYLQMNSLKPEDTAVFYCKADAEPSSGTSAKNDYWGQGTQVSVSS,low polyreactivity
4,QVQLVESGGGLVQAGGSLRLSCAASGITFEGYALGWYRQAPGKERELVAAIRSSGTSTYYADSVKGRFTISRDIAKNTVYLQMNSLKPEDTAVYYCNRARSSSRYDYWGQGTQVTVSS,low polyreactivity
5,QVQLVESGGGLVQAGGSLRLSCAASGITFEPYDMGWYRQAPGKERELVAAISTTGGRTYYADSVKGRFTISRDNAKNTVYLQMNSLKPEDTAVYYCAARYTTRRRYDYWGQGTQVTVSS,high polyreactivity
6,QVQLVESGGGLVQAGGSLRLSCAASGITFESNAMGWYRQAPGKEREFVAAISYDGGDTYYADSVKGRFTISRDNAKNTVYLQMNSLKPEDTAVYYCAAEPGWTMDYWGQGTQVTVSS,low polyreactivity
7,QVQLVESGGGLVQAGGSLRLSCAASGITFEVYAMGWYRQAPGKERELVAVITSVGSTNYADSVKGRFTISRDNAKNTVYLQMNSLKPEDTAVYYCASEKWTVRRFNPYTYYRYDYWGQGTQVTVSS,low polyreactivity
8,QVQLVESGGGLVQAGGSLRLSCAASGITFFDYAMGWYRQAPGKERELVAAIDLSDGRTYYADSVKGRFTISRDNAKNTVYLQMNSLKPEDTAVYYCARQHEDYGYYWYYWYDYDYWGQGTQVTVSS,low polyreactivity
9,QVQLVESGGGLVQAGGSLRLSCAASGITFFENAMGWYRQAPGKERELVAASSYSGGSTYYADSVKGRFTISRDNAKNTVYLQMYRLKPEDTAVYSCAADWYNFLYIRNRWGYGYWGQGSQVTVSS,high polyreactivity
10,QVQLVESGGGLVQAGGSLRLSCAASGITFFFNAMGWYRQAPGKERELVAAITSGAGSTYYADSVKGRFTISRDNAKITVYLQMNSLKPEDTAVYYCASEWSYGGMDYWGQGTQVNVSS,low polyreactivity
11,QVQLVESGGGLVQAGGSLRLSCAASGITFFGYAMGWYREAPGKERELVAGISRSTGRTYYADSVKGRFTISRDNAKNTVYLQMNILKPEDTAVYYCAARATRSLSRYMDYWGQGTQVTVSS,high polyreactivity
12,QVQLVESGGGLVQAGGSLRLSCAASGITFFLYAMGWYRQAPGKERELVAVISASGGSTYYADSVKGRFTISRDNAKNTVYLQMNSLKPEDTAVYYCAAGYRFYGFYALYYWGQGTQVTVSS,high polyreactivity
13,QVQLVESGGGLVQAGGSLRLSCAASGITFFPYAMGWYIQAPGKERELVADITWRGGRTYYADSVKGRFTISRDNAKNTVYLQMNSLKPEDTAVYYCAKVARQNWFRYNYDYWGQGTQVTVSS,high polyreactivity
14,QVQLVESGGGLVQAGGSLRLSCAASGITFGANAMGWYRQAPGKERELVAHITWSGGDTYYADSVKGRFTISRDNAKNTVYLQMNSLKPEDTAVYYCNALQPGLGSPLGEYDYWGQGTQVTVSS,low polyreactivity
15,QVQLVESGGGLVQAGGSLRLSCAASGITFGGYAMGWYRKAPGKERELVAAITSSGGITYYADSVKGRFTISRDNAKKTVYLLLNSLKPEDTAVYYCAKVPLEIVTIRDDEDYWGQGTQVTVSS,low polyreactivity
16,QVQLVESGGGLVQAGGSLRLSCAASGITFGKYAMGWYRQAPGKERELVAAISWSGGSTYYADSVKGRFTISRDNAKNTVYLQMNSLKPEDTAVYYCAASYPYRRGEFYYYRSSDDDYWGQGTQVTVSS,high polyreactivity
17,QVQLVESGGGLVQAGGSLRLSCAASGITFGPNAMGWYRQAPGKERELVAAISWRGGSTYYADSVKGRFTISRDNAKNTVYLQMNSLKPEDTAVYYCAKVQIPASYIRYDYWGQGTQVTLSS,low polyreactivity
18,QVQLVESGGGLVQAGGSLRLSCAASGITFGRKTMGWYRQAPGKERELVAAIDSGGNTYADSVKGRFTISRDNAKNTVYLQMNSLKPEDTAVYYCAVDGGVFSSYGYWGQGTLVTVSS,low polyreactivity
19,QVQLVESGGGLVQAGGSLRLSCAASGITFGRNTMGWYRQAPGKERELVAAIDSGGNTYADSVKGRFTISRDNAKNTVYLQMNSLKPEDSAVYYCAVDGGEFSSYGYWGQGTQVTVSS,low polyreactivity
20,QVQLVESGGGLVQAGGSLRLSCAASGITFGSYAMGWYRQAPGKERELVAAINSRGSRTYYADSVKVRFTISRDNAKNTVYLQMNSLKPEDTAVYYCAASNSHVGPNDYWGQGTQVTVSS,high polyreactivity
21,QVQLVESGGGLVQAGGSLRLSCAASGITFGVYARGWYRQAPGKEREFVADIDRTRGSTYADSVKGRFTISRDNAMNTVYLQMNSLKPEDTAVYYCAAGWGFRFYYWYWGQGTHVTVSS,high polyreactivity
22,QVQLVESGGGLVQAGGSLRLSCAASGITFGWYAMGWYRQAPGKERELVAAITWDGGSTYYADSVKGRFTFSRDNAKNTVYLQMNSLKPEDTAVYYCAAEYIYYYYLVARDYWGQGTQVTVSS,high polyreactivity

row,Sequence,polyreactivity (PSR sort gate)
1,QVQLVESGGGLVQAGGSLRLSCAASGITFGYNAMGWYRQAPGKERELVAAISWRVGSTSYADSVKGRFTISRDNAKNTVYLQMNSLKPEDTAVYYCAAVRYNYNFKMYYWGQGTQVTVSS,high polyreactivity
2,QVQLVESGGGLVQAGGSLRLSCAASGITFGYNTMGWYRQAPGKERELVAAISGSGGRTYYADSLKGRFTISRDNSKNTVYLQMNSLKPEDTAVYYCAARWPIWSSLYDYWGQGTQVTVSS,high polyreactivity
3,QVQLVESGGGLVQAGGSLRLSCAASGITFGYYAMGWYRQAHGKERELVAAITYSGGSTYYADSVKGRFTISRDNAKNTVYLQMNSIKPEDTAVYYCAADDGYTYYWAGYDSWGQGTQVSVSS,low polyreactivity
4,QVQLVESGGGLVQAGGSLRLSCAASGITFHRYAMRWYRQAPGKERELVAAINGGGGSTYYADSVKGRFTISRDNAKNTVYLQMNSLKPEDTAVYYCAAEVQNGVHIYDYWGQGTQVTVSS,high polyreactivity
5,QVQLVESGGGLVQAGGSLRLSCAASGITFIINAMGWYRQAPGKERELVAAISWRGGNTHYADSVKGRFTISRDYAKNTVYLQLNSLKAEVTAVYYCAARVTSRRDPDQKHGYWGQGTQVTVSS,high polyreactivity
6,QVQLVESGGGLVQAGGSLRLSCAASGITFIQYAMGWYRQAPGKERELVAAISSGGRTYYADSVKGRFTISRDNAKNTVYLQMNSLKPEDTAVYYCARDIQHYGGDSWGQGTQVTVSS,low polyreactivity
7,QVQLVESGGGLVQAGGSLRLSCAASGITFIRNAMGWYRQAPGKERELVAAISYRGGSTYYADSVKGRFTISRDNAKNTVYLQMNSLKPEDTAVYYCAAARKLDATTYYKFDYWGQGTQVTVSS,high polyreactivity
8,QVQLVESGGGLVQAGGSLRLSCAASGITFIRNAMGWYRQAPGKERELVAAISYRGGSTYYADSVKGRFTISRDNAKNTVYLQMNSLKPEDTAVYYCAAKRYGYKMYYWGQGTQVTVSS,high polyreactivity
9,QVQLVESGGGLVQAGGSLRLSCAASGITFISYAMGWYRQAPGKEMELVAAISSSGGRTYYADSVKGRFTISRDNAKNTVYLQMNSLKPEDTAVYYCAADGYPEYPRYGYWGQGTQVTVSS,high polyreactivity
10,QVQLVESGGGLVQAGGSLRLSCAASGITFIVNTMGWYRQAPGKEREFVATISANSDGTYYADSVKGRFTISRDIAKNTVYLQKNSLKPEDTAVYYWGQGTQVTVSS,low polyreactivity
11,QVQLVESGGGLVQAGGSLRLSCAASGITFIYYAMGWYRQAPGKERELVAAISRSGGSTYYADSVKGRFTISRDNAKNTVYLQMNSLKPEDTAVYYCAADGTKFSGRVTGDYWGQGTQVTVSS,high polyreactivity
12,QVQLVESGGGLVQAGGSLRLSCAASGITFIYYAMGWYRQAPGKERELVAAITWRGGSTYYADSVKGRFTISRDNAKYTVYLQMNSLKPEDTAVYYCNKGGISGRDYWGQGTQVTVSS,high polyreactivity
13,QVQLVESGGGLVQAGGSLRLSCAASGITFIYYHMGWYRQAPGKERELVAAINWSGGRTYYADSVKGRFTISRDNAKNTVYVQMNSLIPEDTAVYYCAADSWRPVYLGYYWGQGTQVTVSS,high polyreactivity
14,QVQLVESGGGLVQAGGSLRLSCAASGITFKDYAMGWYRQATGKERELVAVISYSGGSTYYADSVKGRFTISRDNAKNTVYLQMNSLKPEDTAVYYCAARVGPEYDWGQGTQVTVSS,low polyreactivity
15,QVQLVESGGGLVQAGGSLRLSCAASGITFKGNAMGWYRQAPGKERELVAAIRWRAGRTYYADSVKGRFTISRDNAKNTVYLQMNSLKPEDTAVYYCAAVGRYAYRRGSFLAYKSNYDYWGQGTQVTVSS,high polyreactivity
16,QVQLVESGGGLVQAGGSLRLSCAASGITFKGYTMGWYRQAPGKERELVATISRGGRTYADSVKGRFTISRDNAKNTVYLQMNSLKPEDTAVYYCAADKYWAQNDYWGQGTQVTVSS,low polyreactivity
17,QVQLVESGGGLVQAGGSLRLSCAASGITFKTYAMGWYRQAPGKERELVATINRGSRTNYADSVKGRFTISRDNAKNTVYLQMNSLKPEDTAVYYCAAHYTTFIPSPDGDYLGQGTQVTVSS,low polyreactivity
18,QVQLVESGGGLVQAGGSLRLSCAASGITFKYYAMGWYRQAPGKERELVAAISRGGTTSYADSVKGRFTISRDNAKNTVYLQMNSLKPEETAVYYCAAKYWWYPYFTVDYDYWGQGTQVTVSS,high polyreactivity
19,QVQLVESGGGLVQAGGSLRLSCAASGITFKYYAMGWYRQAPGKERELVAAITRGGSTYYADSVKRRFTISRDNAKTTVYLQMNSLKPVDTAVYYCNKARTYELYWGQGTQVTVSS,high polyreactivity
20,QVQLVESGGGLVQAGGSLRLSCAASGITFKYYTMAWYRQAPGKERELVAAISRSGGSTYYADSVKGRFTISRDNAKNTVYLQMMSLKPEDTAVYYCAAERGAYRGVTFTYGYWGQGTQVTLSS,high polyreactivity
21,QVQLVESGGGLVQAGGSLRLSCAASGITFLHYAMGWYRQAPGKERELVARITYSGSSTYYADSVKGRFTISRDNAKNTVYLQMNSLKPEDTAVYYCNARASWGRWSRTGTPRYDYWGQGTQVTVSS,high polyreactivity
